{"source": "patent US12037382", "key": {"[1]": {"molecular_target": "US28 wild type, G protein-coupled receptor of human cytomegalovirus strain VHL/E (human cytomegalovirus strain VHL/E)", "assay": "displacement of 125I-CCL5 from US28-expressing HEK293T membranes by unlabeled CCL5"}, "[2]": {"molecular_target": "US28 wild type, G protein-coupled receptor of human cytomegalovirus strain VHL/E (human cytomegalovirus strain VHL/E)", "assay": "competition of unlabeled CCL5 against 125I-CCL5 on US28"}, "[3]": {"molecular_target": "US28 wild type, G protein-coupled receptor of human cytomegalovirus strain VHL/E (human cytomegalovirus strain VHL/E)", "assay": "cell-based or functional assay"}}}
{"substance": "human chemokine CCL5 (from UniProt P13501 24-91) (ligand)", "values": [{"measurement": "IC50 (read off the curve)", "setting": "[1]", "value": 3, "unit": "nM"}, {"measurement": "IC50 (read off the curve)", "setting": "[2]", "value": 1, "unit": "nM"}, {"measurement": "CCL5-induced accumulation of inositol phosphates (EC80)", "setting": "[3]", "value": 31.6, "unit": "nM"}]}
